Experiment [1] addresses T1, rhesus monkey NPY Y4 receptor protein of SEQ ID NO: 2 (encoded by the nucleotide sequence of SEQ ID NO: 1) (rhesus monkey, UniProt P0DQD5 1-375 (human entry)).
T1 construct: 375 residues; also called rhesus monkey Y4 receptor
T1 chain: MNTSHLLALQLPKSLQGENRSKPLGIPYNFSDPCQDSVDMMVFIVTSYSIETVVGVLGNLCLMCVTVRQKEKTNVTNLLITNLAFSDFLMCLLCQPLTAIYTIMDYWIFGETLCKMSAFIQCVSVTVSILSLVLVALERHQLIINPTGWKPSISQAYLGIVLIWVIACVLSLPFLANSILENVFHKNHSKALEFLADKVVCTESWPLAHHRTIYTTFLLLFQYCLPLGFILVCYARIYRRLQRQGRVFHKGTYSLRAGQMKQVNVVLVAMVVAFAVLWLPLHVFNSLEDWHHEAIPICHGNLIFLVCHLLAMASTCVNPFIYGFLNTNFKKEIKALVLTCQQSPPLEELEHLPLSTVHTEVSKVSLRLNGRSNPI
Kind of experiment: competition against 59 pM [125I]human PP, COS-7 membrane fractions, filter binding. As to the method: (§1) The membrane fraction obtained in this manner was incubated for 2 hours at 25° C. together with 31 pM [¹²⁵I]human PP in 25 mM Tris buffer (pH 7.4) containing 10 mM MgCl₂, 1 mM phenylmethylsulfonyl fluoride, 0.1% bacitracin and 0.5% bovine serum albumin, and then filtered through a polyethyleneimine-treated UniFilter-96 GF/C (Perkin-Elmer). After rinsing with 5 mM Tris buffer (pH 7.4) containing 0.3% bovine serum albumin and drying, MicroScint0 (Perkin-Elmer) was added, and a TopCount HTS (Packard) was used to measure the residual radioactivity on the filter. The non-specific binding was measured in the presence of 1 μM human PP.
(§2) Also, with the membrane fraction concentration set to 0.155 and 0.14 mg protein/ml and the [¹²⁵I]human PP concentration set to 59 pM, human PP, human NPY and swine PYY were added to the reaction solution at different concentrations, and a Prism Version 4.00 (GraphPad) was used to determine the 50% inhibitory concentration (IC₅₀ value) from the inhibition curve for each peptide against specific [¹²⁵I]human PP binding (FIGS. 3 and 4).

Experiment [2] has as its target T2, rhesus monkey NPY Y4 receptor protein of SEQ ID NO: 4 (encoded by the nucleotide sequence of SEQ ID NO: 3) (rhesus monkey, UniProt P0DQD5 1-375 (human entry)).
T2 construct: 375 residues; also called rhesus monkey Y4 receptor
T2 chain: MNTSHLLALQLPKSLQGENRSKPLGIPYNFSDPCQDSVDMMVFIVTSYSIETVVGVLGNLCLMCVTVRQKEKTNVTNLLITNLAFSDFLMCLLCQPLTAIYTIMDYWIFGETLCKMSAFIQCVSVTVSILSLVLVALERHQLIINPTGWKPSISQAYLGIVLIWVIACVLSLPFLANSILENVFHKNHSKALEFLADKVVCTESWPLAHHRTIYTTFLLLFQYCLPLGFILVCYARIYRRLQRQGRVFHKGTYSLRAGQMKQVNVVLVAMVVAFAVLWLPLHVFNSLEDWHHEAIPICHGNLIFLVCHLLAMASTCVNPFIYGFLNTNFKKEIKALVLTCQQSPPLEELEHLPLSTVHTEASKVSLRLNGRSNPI
Described as above. As to the method:
as §1, §2

Experiment [3] concerns the target T1, rhesus monkey NPY Y4 receptor protein …. The experiment is described as follows: cell-based or functional assay.
For experiment [4], the target named is T2, rhesus monkey NPY Y4 receptor protein …. Kind of experiment: cell-based or functional assay.

Where no end group is shown, it is not given here.

B1: swine Peptide YY (peptide)
peptide: not shown
notes: mature; also called swine PYY; PYY
Take B1: the IC50 (in general, the concentration needed to halve the response being measured) came out at 10 nM in experiment [1] and 9.9 nM in experiment [2].

B2: human Pancreatic Polypeptide (peptide, UniProt P01298 30-65, looked up)
peptide: APLEPVYPGDNATPEQMAQYAADLRRYINMLTRPRY
modifications: ends and bridges not checked
notes: mature; also called human PP; PP
For the molecule B2, the “EC50 of the increase in fluorescent intensity (intracellular calcium ion concentration, Fluo-4, FLIPR) in CHO-K1 cells with G alpha 15” value in experiment [3] was 1.8 nM; in experiment [4], 4.8 nM. The concentration for half-maximal inhibition (IC50) was found to be 0.24 nM in experiment [1] and 0.17 nM in experiment [2].

B3: human Neuropeptide-Y (peptide)
peptide: not shown
notes: mature; also called human NPY; NPY
For the molecule B3, the IC50 amounted to 100 nM in experiment [1] and 97 nM in experiment [2].

These data come from US20070083037A1 (published 2007).
